Substitutions are numbered along the chain they refer to.
T1: Wheat germ agglutinin (WGA) (Triticum vulgare, UniProt P10968 P10968:27-197)
T1 sequence: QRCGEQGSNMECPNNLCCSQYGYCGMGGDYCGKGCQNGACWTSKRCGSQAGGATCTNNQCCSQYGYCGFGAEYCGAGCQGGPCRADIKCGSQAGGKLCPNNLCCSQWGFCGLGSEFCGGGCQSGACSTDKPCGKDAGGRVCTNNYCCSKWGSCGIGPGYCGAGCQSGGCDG

T2: L-selectin (LS-Rg) (Homo sapiens, UniProt P14151 P14151:39-332)
T2 sequence: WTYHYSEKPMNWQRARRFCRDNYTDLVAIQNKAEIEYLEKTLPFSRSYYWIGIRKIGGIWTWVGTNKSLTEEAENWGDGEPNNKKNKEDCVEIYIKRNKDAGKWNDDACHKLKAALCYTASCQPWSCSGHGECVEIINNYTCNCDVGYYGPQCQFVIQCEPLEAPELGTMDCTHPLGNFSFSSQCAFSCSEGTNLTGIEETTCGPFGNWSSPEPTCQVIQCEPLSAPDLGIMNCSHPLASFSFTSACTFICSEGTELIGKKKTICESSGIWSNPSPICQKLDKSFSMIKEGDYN

T3: soluble L-selectin (Homo sapiens, UniProt P14151 P14151:39-332)
T3 sequence: T2 sequence

B1: PF381 (ssRNA)
RNA: GGGAGACAAGAAUAAACGCUCAAAGGAUCACACAAACAUCGGUCAAUAAAUAAGUAUUGAUAGCGGGGAUAUUCGACAGGAGGCUCACAACAGGC
modifications: 2'-F on all C and U
B2: PF396 (ssRNA)
RNA: GGGAGACAAGAAUAAACGCUCAAGCGGUCAGAAACAAUAGCUGGAUACAUACCGCGCAUCCGCUGGGCGAUAUUCGACAGGAGGCUCACAACAGGC
modifications: 2'-F on all C and U
B3: PF395 (ssRNA)
RNA: GGGAGACAAGAAUAAACGCUCAACGAGCAAGGAACGAAUACAAACCAGGAAACUCAGCAACACGCGAGCAGUAAGAAUUCGACAGGAGGCUCACAACAGGC
modifications: 2'-F on all C and U
B4: PF373 (ssRNA)
RNA: GGGAGACAAGAAUAAACGCUCAACGAAUCAGUAAACAUAACACCAUGAAACAUAAAUAGCACGCGAGACGUCUUCGACAGGAGGCUCACAACAGGC
modifications: 2'-F on all C and U
B5: PF378 (ssRNA)
RNA: GGGAGACAAGAAUAAACGCUCAACGAUGAGCGUGACCGAAGCUAUAAUCAGGUCGAUUCACCAAGCAAUCUUAUUCGACAGGAGGCUCACAACAGGC
modifications: 2'-F on all C and U
B6: PF380 (ssRNA)
RNA: GGGAGACAAGAAUAAACGCUCAACGAGCAAAAGUACUCACGGGACCAGGAGAUCAGCAACACGCGAGACGAAAUUCGACAGGAGGCUCACAACAGGC
modifications: 2'-F on all C and U
B7: PF422 (ssRNA)
RNA: GGGAGACAAGAAUAAACGCUCAACGUCAAGCCAGAAUCCGGAACACGCGAGAAAACAAAUCAACGACCAAUCGAUUCGACAGGAGGCUCACAAAGGC
modifications: 2'-F on all C and U
B8: PF412 (ssRNA)
RNA: GGGAGACAAGAAUAAACGCUCAACGACCACAAUACAAACUCGUAUGGAACACGCGAGCGACAGUGACGCAUUUUCGACAGGAGGCUCACAACAGGC
modifications: 2'-F on all C and U
B9: WGA ligand 6.5 (ssRNA)
RNA: GGGAAAAGCGAAUCAUACACAAGAGUCCCUAGGGAUGCAACGGGCAGCAUUCGCAUAGGAGUAAUCGGAGGUCGCUCCGCCAGAGACCAACCGAGAA
modifications: 2'-NH2 C and U
B10: WGA ligand 6.23 (ssRNA)
RNA: GGGAAAAGCGAAUCAUACACAAGACUCGGCGGGAAUCGAAAGUGUACUGAAUUAGAACGGUGGGCCUGCUCAUCGUGCUCCGCCAGAGACCAACCGAGAA
modifications: 2'-NH2 C and U
B11: WGA ligand 6.9 (ssRNA)
RNA: GGGAAAAGCGAAUCAUACACAAGACUCGGCGGGAACGAAGUGUGUGAGUAACGAUCACUUGGUACUAAAAGCCCGCUCCGCCAGAGACCAACCGAGAA
modifications: 2'-NH2 on all C and U
B12: WGA ligand 11.6 (ssRNA)
RNA: GGGAAAAGCGAAUCAUACACAAGACUGGGGAGCAGGAUAUGAGAUGUGCGGGGCAAUGGAGUCGUGACGAACCGCUCCGCCAGAGACCAACCGAGAA
modifications: 2'-NH2 on all C and U
B13: LF1614 (ssRNA)
RNA: GGGAGGACGAUGCGGCAAACAAGCUCAAAUGACGUGUUUUUCAAGUCCUUGUUGUCAGACGACUCGCCCGA
modifications: 2'-F C and U
B14: LF1527 (ssRNA)
RNA: GGGAGGACGAUGCGGACCCUCAAAUAGCGUGCAUUUCAAGCUGGUCAGACGACUCGCCCGA
modifications: 2'-F C and U
B15: LF1529 (ssRNA)
RNA: B14 RNA with G27A, C32U, A33C, C41U
modifications: 2'-F C and U
B16: LF1808 (ssRNA)
RNA: GGGAGGACGAUGCGGCAUGGUCUUAGGCGACGCGUUUAUAUCGAGUCACCAUGCUCAGACGACUCGCCCGA
modifications: 2'-F C and U
B17: LF1708 (ssRNA)
RNA: GGGAGGACGAUGCGGAUCUUAAGCAGCGCGUCAAUCGAGCUAACCCAGACGACUCGCCCGAG
modifications: 2'-F on all C and U
B18: LF1712 (ssRNA)
RNA: GGGAGGACGAUGCGGGAUCUUAAGCAGUGCGUUAUUCGAACUAUCCCAGACGACUCGCCCGA
modifications: 2'-F C and U
B19: LF1815 (ssRNA)
RNA: GGGAGGACGAUGCGGCCAUCGGUCUUGGGCAACGCGUUUUCGAGUUACCUAUGGUCAGACGACUCGCCCGA
modifications: 2'-F C and U
B20: LF1536 (ssRNA)
RNA: GGGAAGACGAUGCGGCGCUCAAAUAAUGCGUUAAUCGAAUUCGCCCAGACGACUCGCCCGA
modifications: 2'-F C and U
B21: LF1521 (ssRNA)
RNA: GAGGACGAUGCGGGCUCUUAAGCAACGUGUUAUCAAGUUAGCCCAGACGACUCGCCCGA
modifications: 2'-F C and U
B22: PF416 (ssRNA)
RNA: GGGAGACAAGAAUAAACGCUCAACAGUUCACUCAACCGGCACCAGACUACGAUCAGCAUUGGCGAGUGAACACUUCGACAGGAGGCUCACAACAGGC
modifications: 2'-F C and U
B23: PF417 (ssRNA)
RNA: GGGAGACAAGAAUAAACGCUCAAAAAGACGUAUUCGAUUCGAAACGAGAAAGACUUCAAGUGAGCCCGCAGUUCGACAGGAGGCUCACAACAGGC
modifications: 2'-F C and U
B24: PF388 (ssRNA)
RNA: GGGAGACAAGAAUAAACGCUCAACUGGCAACGGGAUAACAACAAAUGUCACCAGCACUAGCGAGACGGAAGGUUCGACAGGAGGCUCACAACAGGC
modifications: 2'-F C and U
B25: PF387 (ssRNA)
RNA: GGGAGACAAGAAUAAACGCUCAACGCACCAGGAACAACGAGAACCAUCAGUAAACGCGAGCGAUUGCAUGUUCGACAGGAGGCUCACAACAGGC
modifications: 2'-F C and U
B26: PF386 (ssRNA)
RNA: GGGAGACAAGAAUAAACGCUCAAACAAGAGAGUCAAACCAAGUGAGAUCAGAGCGUUUAGCGCGGAAAGCACAUUCGACAGGAGGCUCACAACAGGC
modifications: 2'-F C and U
B27: PF398 (ssRNA)
RNA: GGGAGACAAGAAUAAACGCUCAACGAACCACGGGGAAAUCCACCAGUAACACGCGAGGCAAACAGACCCUCUUCGACAGGAGGCUCACAACAGGC
modifications: 2'-F C and U
B28: PF404 (ssRNA)
RNA: GGGAGACAAGAAUAAACGCUCAAUCAGCAGUAAGCGAUCCUAUAAAGAUCAACUAGCCAAAGAUGACUUAUUCGACAGGAGGCUCACAACAGGC
modifications: 2'-F C and U

These binders were tested against T4, P-selectin (PS-Rg) (Homo sapiens, UniProt P16109 P16109:42-321) (assay: filter; 37 C, HSMC). Conditions: tags: human IgG1 Fc fusion; chain copies: dimer; label: 32P.
T4 sequence (P16109 42-321, one chain of several): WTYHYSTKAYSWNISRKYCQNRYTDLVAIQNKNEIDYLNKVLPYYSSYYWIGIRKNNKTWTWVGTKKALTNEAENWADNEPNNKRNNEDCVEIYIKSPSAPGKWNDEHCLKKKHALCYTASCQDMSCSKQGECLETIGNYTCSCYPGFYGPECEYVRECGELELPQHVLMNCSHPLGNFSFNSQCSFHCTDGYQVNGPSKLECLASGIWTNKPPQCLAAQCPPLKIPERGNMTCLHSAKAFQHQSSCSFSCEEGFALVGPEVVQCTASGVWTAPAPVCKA

In order of falling Kd:
1. B8  0.45 nM
2. B7  0.172 nM
3. B6  0.0745 nM
4. B5  0.0515 nM
5. B4  0.0495 nM
6. B3  0.026 nM
7. B2  0.024 nM
8. B1  0.0165 nM

What follows are binders tested against T1, Wheat germ agglutinin (WGA) (assay: filter; HBSS, room temperature). Conditions: tags: E Y Laboratories; chain copies: 2 (stated homodimer).
Procedure: As described in SEIEX patent applications, a nitrocellulose filter partitioning method was used to determine the affinity of RNA ligands for WGA and for other proteins. Filter discs (nitrocellulose/cellulose acetate mixed matrix, 0.45 μm pore size, Millipore; or pure nitrocellulose, 0.45 μm pore size, Bio-Rad) were placed on a vacuum manifold and washed with 4 ml of HBSS buffer under vacuum. Reaction mixtures, containing ³²P labeled RNA pools and unlabeled WGA, were incubated in HBSS for 10 min at room temperature, filtered, and then imnmediately washed with 4 ml HBSS. The filters were air-dried and counted in a Beckman LS6500 liquid scintillation counter without fluor.
The dissociation constants for representative members of families 1-9 and orphan ligands were determined by nitrocellulose filter binding experiments and are listed in Table 3. These calculations assume one RNA ligand binding site per WGA monomer.

In order of falling Kd:
1. B10  824 nM
2. B9  678 nM

Same assay, conditions: tags: E Y Laboratories; chain copies: homodimer; label: 32P

In order of falling Kd:
1. B12  702 nM
2. B11  396 nM

The binders below were run against T2, L-selectin (LS-Rg) (assay: filter; 37 C). Conditions: tags: human IgG2 Fc fusion; chain copies: 2 (stated dimer).
Procedure: (§1) Unless otherwise indicated, all materials used in the 2′-F RNA SELEX against the L-selectin/IgG2 chimera, LS-Rg, were identical to those of Examples 7, paragraph A and 13, paragraph A. SHMCK-140 buffer, used for all SELEX and binding experiments, was 1 mM CaCl₂, 1 mM MgCC₂, 140 mM NaCl, 5 mM KCl. and 20 mM HEPES, pH 7.4. A soluble form of L-selectin, corresponding to the extracellular domains, was purchased from R&D Systems and used for some nitrocellulose filter binding experiments.
(§2) As described in SELEX Patent Applications, a nitrocellulose filter partitioning method was used to determine the affinity of RNA ligands for LS-Rg and for other proteins. Filter discs (nitrocellulose/cellulose acetate mixed matrix, 0.45 μm pore size, Millipore) were placed on a vacuum manifold and washed with 3 ml of SHMCK 140 buffer under vacuum. Reaction mixtures, containing ³²P labeled RNA pools and unlabeled LS-Rg, were incubated in SHMCK 140 for 10-20 min at 37° C., and then immediately washed with 3 ml SHMCK 140. The filters were air-dried and counted in a Beckman LS6500 liquid scintillation counter without fluor. Alternatively, binding studies employed 96 well micro-titer manifolds essentially as described in Example 13, paragraph E.
(§3) These calculations assume two ligand binding sites per chimera.

In order of falling Kd:
1. B15  0.6 nM
2. B16  0.6 nM
3. B14  0.32 nM
4. B13  0.17 nM

Same assay, conditions: tags: human IgG2 Fc fusion; chain copies: dimer; label: 32P

With B17 the Kd was 70 nM.

The binders below were run against T3, soluble L-selectin (assay: filter; 37 C). Conditions: tags: R&D Systems.
Procedure: as §1, §2, §3

In order of rising Kd:
1. B18  0.065 nM
2. B19  0.18 nM
3. B20  0.22 nM
4. B21  0.25 nM

What follows are binders tested against T4, P-selectin (PS-Rg) (assay: filter; HSMC, 37 C). Conditions: tags: human IgG Fc fusion; chain copies: 2 (stated dimer).

In order of falling Kd:
1. B24  0.09 nM
2. B23  0.069 nM
3. B22  0.063 nM
4. B28  0.0475 nM
5. B27  0.046 nM
6. B26  0.0455 nM
7. B25  0.016 nM
